From US11248019B2, “Trityl-mono-GalNAc compounds and their use” (Hoffmann-La Roche Inc., priority 2016, dated 2022)

How the values were obtained:
Type in all cases: in vivo, C57BL6/J mice
ApoB mRNA [1] = assay: ApoB mRNA knockdown in liver and kidney by qPCR, single iv dose 0.1 mg/kg, day 7 or 14 (Example 7); details: 0.1 mg/kg single iv dose
Method: (§1) ApoB mRNA knockdown was analyzed by qPCR. In brief, RNA was isolated from homogenized liver and kidney using MagnaPure RNA Isolation and purification system (catalog #03604721001 and #05467535001; Roche) according to the manufacturer's instructions. RT-QPCR was done using Taqman Fast Universal PCR Master Mix 2×(Applied Biosystems Cat #4364103) and Taqman gene expression assay (mApoB, Mn01545150_m1 and mGAPDH #4352339E) following the manufacturers protocol.
(§2) Female C57BL6/J mice (5/group appr. 20 g at arrival) were injected intravenous (iv) with a single dose saline or 0.1 mg/kg of GalNAc conjugated LNA antisense oligonucleotide (Compound J, K, L, B or C of the invention or reference compound M). Blood samples of 50 μl were collected pre-dosing at day minus 6, and post dosing at day 3, 7, 10 and 14. The animals were sacrificed at day 7 or 14 and total serum was collected as well as liver and kidney.
ApoB mRNA knock down was measured as described in example 4.

[2] = Oligonucleotide content in liver and kidney by ELISA (Example 7); details: 0.1 mg/kg single iv dose
Method: as §2
The oligonucleotide content in the liver and kidney was measured using ELISA (see for example Straarup et al 2010 Nucleic Acid Res Vol 38 pp 7100-7111), results are shown in Table 16.

ALT in serum (Example 7) = details: 0.1 mg/kg single iv dose
Method: as §2
ALT (Alanine aminotransferase) was measured using ABX Pentra ALT CP reagent (A11A01627 Triolab, Brondby, Denmark. The results are shown in table 17.

ApoB mRNA [3] = assay: ApoB mRNA knockdown in liver and kidney by qPCR, single sc dose, sacrifice day 10 (Example 4); details: for ApoB mRNA expression as % of saline, mRNA kidney: day 10, kidney; for ApoB mRNA expression as % of saline, mRNA liver: day 10, liver
Method: (§3) Female C57BL6/J mice (5/group appr. 20 g at arrival) were injected subcutaneous (sc) with a single dose saline or 0.25 mg/kg unconjugated LNA-antisense oligonucleotide (compound F) or with 0.25 mg/kg or 0.1 mg/kg of GalNAc conjugated LNA antisense oligonucleotide (Compound C or E of the invention or reference compound G). Blood samples of 50 μl were collected pre-dosing at day minus 6, and post dosing at day 3 and 7. The animals were sacrificed at day 10 and total serum was collected as well as liver and kidney.
as §1

[4] = Oligonucleotide content in liver and kidney by ELISA (Example 4); details: for Oligonucleotide content, Kidney / Oligonucleotide content, Liver: day 10
Method: as §3
The oligonucleotide content in the liver and kidney was measured using ELISA (see for example Straarup et al 2010 Nucleic Acid Res Vol 38 pp 7100-7111), results are shown in Table 6.

Row | Substance | ApoB mRNA/mGAPDH expression as % of saline, Avg kidney (ApoB mRNA [1]; Day 7, kidney) | ApoB mRNA/mGAPDH expression as % of saline, Avg liver (ApoB mRNA [1]; Day 7, liver) | ApoB mRNA/mGAPDH expression as % of saline, Avg kidney (ApoB mRNA [1]; Day 14, kidney) | ApoB mRNA/mGAPDH expression as % of saline, Avg liver (ApoB mRNA [1]; Day 14, liver) | Oligonucleotide content, Avg kidney ([2]; Day 7, kidney tissue) [µg/g] | Oligonucleotide content, Avg liver ([2]; Day 7, liver tissue) [µg/g] | Oligonucleotide content, Avg kidney ([2]; Day 14, kidney tissue) [µg/g] | Oligonucleotide content, Avg liver ([2]; Day 14, liver tissue) [µg/g] | ALT levels (U/L) in serum as % of saline (ALT in serum (Example 7); Day 7) | ALT levels (U/L) in serum as % of saline (ALT in serum (Example 7); Day 14) | further results
1 | 5′-cOaOGS^mCSaStStSgSgStSaStSTS^mCSA-3′ [B] | 62.5 % of saline | 49.2 % of saline | 100.3 % of saline | 112.8 % of saline | 0.353 | 0.161 | 0.152 | 0.066 | 177.3 % of saline | 108.5 % of saline | –
2 | 5′-cOaOGS^mCSaStStSgSgStSaStSTS^mCSA-3′ [Compound C] | 93.8 % of saline | 63.2 % of saline | 74.4 % of saline | 116.3 % of saline | 0.307 | 0.493 | 0.118 | 0.209 | 136.7 % of saline | 111.3 % of saline | ApoB mRNA expression as % of saline, mRNA kidney (ApoB mRNA [3]; 0.1 mg/kg single sc dose): 72.4 % of saline; ApoB mRNA expression as % of saline, mRNA liver (ApoB mRNA [3]; 0.1 mg/kg single sc dose): 69.6 % of saline; ApoB mRNA expression as % of saline, mRNA kidney (ApoB mRNA [3]; 0.25 mg/kg single sc dose): 56.1 % of saline; ApoB mRNA expression as % of saline, mRNA liver (ApoB mRNA [3]; 0.25 mg/kg single sc dose): 24.0 % of saline; knock down of ApoB mRNA compared to the GalNAc2 cluster conjugated LNA oligonucleotide (compound G) (ApoB mRNA [3]; in words, high dose (0.25 mg/kg)): better knockdown; knock down of ApoB mRNA in the liver compared to unconjugated (naked) oligonucleotide (compound F) (ApoB mRNA [3]; in words, single sc dose, day 10): improved knock down; Oligonucleotide content, Kidney ([4]; 0.1 mg/kg single sc dose): 0.080 μg/g tissue; Oligonucleotide content, Liver ([4]; 0.1 mg/kg single sc dose): 0.028 μg/g tissue; Oligonucleotide content, Kidney ([4]; 0.25 mg/kg single sc dose): 0.080 μg/g tissue; Oligonucleotide content, Liver ([4]; 0.25 mg/kg single sc dose): 0.028 μg/g tissue; uptake in liver and kidney compared to the unconjugated oligonucleotide (compound F) ([4]; in words): enhanced uptake in the liver and reduced uptake in the kidney; liver/kidney distribution ratio compared to GalNAc2 conjugated LNA oligonucleotide (compound G) ([4]; in words, high dose): improved liver/kidney distribution ratio
3 | 5′-cOaOGS^mCSaStStSgSgStSaStSTS^mCSA-3′ [K] | 80.2 % of saline | 48.7 % of saline | 86.2 % of saline | 112.4 % of saline | 0.275 | 0.401 | 0.129 | 0.173 | 170.3 % of saline | 77.3 % of saline | –
